Experimental findings from US20230220021A1 (UNIVERSITY OF COPENHAGEN, published 2023) are described below.

[ ]: non-standard residue; d: D form.

The experiment concerns the target T1, (7× His)-PSD-95-PDZ2 wild type (UniProt P78352 160-246).
T1 construct: domain: PDZ2; recombinant from E. coli; also called PSD-95-PDZ2 WT; not shown: 7x His tag
As to the kind of experiment: FP competition.

T1 sequence (P78352 160-246): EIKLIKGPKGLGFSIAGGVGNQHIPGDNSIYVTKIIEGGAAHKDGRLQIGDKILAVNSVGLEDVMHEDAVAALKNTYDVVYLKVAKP

B1: cyclic nNOS β-hairpin peptide D114G (peptide)
peptide: cyclo(THLETTFTGGGTPKTIRVTQ[dP]GQ)
SMILES: CC[C@H](C)[C@@H]1NC(=O)[C@H]([C@@H](C)O)NC(=O)[C@H](CCCCN)NC(=O)[C@@H]2CCCN2C(=O)[C@H]([C@@H](C)O)NC(=O)CNC(=O)CNC(=O)CNC(=O)[C@H]([C@@H](C)O)NC(=O)[C@H](Cc2ccccc2)NC(=O)[C@H]([C@@H](C)O)NC(=O)[C@H]([C@@H](C)O)NC(=O)[C@H](CCC(=O)O)NC(=O)[C@H](CC(C)C)NC(=O)[C@H](Cc2c[nH]cn2)NC(=O)[C@H]([C@@H](C)O)NC(=O)[C@H](CCC(N)=O)NC(=O)CNC(=O)[C@H]2CCCN2C(=O)[C@H](CCC(N)=O)NC(=O)[C@H]([C@@H](C)O)NC(=O)[C@H](C(C)C)NC(=O)[C@H](CCCNC(=N)N)NC1=O
For B1, the Ki is 2590 nM and the “Relative Ki (Ki mut/Ki WT)” value came out at 1.73.

B2: cyclic nNOS β-hairpin peptide H106Y (peptide)
peptide: cyclo(TYLETTFTGDGTPKTIRVTQ[dP]GQ)
SMILES: CC[C@H](C)[C@@H]1NC(=O)[C@H]([C@@H](C)O)NC(=O)[C@H](CCCCN)NC(=O)[C@@H]2CCCN2C(=O)[C@H]([C@@H](C)O)NC(=O)CNC(=O)[C@H](CC(=O)O)NC(=O)CNC(=O)[C@H]([C@@H](C)O)NC(=O)[C@H](Cc2ccccc2)NC(=O)[C@H]([C@@H](C)O)NC(=O)[C@H]([C@@H](C)O)NC(=O)[C@H](CCC(=O)O)NC(=O)[C@H](CC(C)C)NC(=O)[C@H](Cc2ccc(O)cc2)NC(=O)[C@H]([C@@H](C)O)NC(=O)[C@H](CCC(N)=O)NC(=O)CNC(=O)[C@H]2CCCN2C(=O)[C@H](CCC(N)=O)NC(=O)[C@H]([C@@H](C)O)NC(=O)[C@H](C(C)C)NC(=O)[C@H](CCCNC(=N)N)NC1=O
For the molecule B2, the inhibitory constant (Ki) was 1180 nM and the “Relative Ki (Ki mut/Ki WT)” value is 0.79.

B3: cyclic nNOS β-hairpin peptide D114K (peptide)
peptide: cyclo(THLETTFTGKGTPKTIRVTQ[dP]GQ)
SMILES: CC[C@H](C)[C@@H]1NC(=O)[C@H]([C@@H](C)O)NC(=O)[C@H](CCCCN)NC(=O)[C@@H]2CCCN2C(=O)[C@H]([C@@H](C)O)NC(=O)CNC(=O)[C@H](CCCCN)NC(=O)CNC(=O)[C@H]([C@@H](C)O)NC(=O)[C@H](Cc2ccccc2)NC(=O)[C@H]([C@@H](C)O)NC(=O)[C@H]([C@@H](C)O)NC(=O)[C@H](CCC(=O)O)NC(=O)[C@H](CC(C)C)NC(=O)[C@H](Cc2c[nH]cn2)NC(=O)[C@H]([C@@H](C)O)NC(=O)[C@H](CCC(N)=O)NC(=O)CNC(=O)[C@H]2CCCN2C(=O)[C@H](CCC(N)=O)NC(=O)[C@H]([C@@H](C)O)NC(=O)[C@H](C(C)C)NC(=O)[C@H](CCCNC(=N)N)NC1=O
As to B3, the inhibitory constant (Ki) worked out at 2870 nM and the “Relative Ki (Ki mut/Ki WT)” value was determined as 1.91.

B4: cyclic nNOS β-hairpin peptide H106F (peptide)
peptide: cyclo(TFLETTFTGDGTPKTIRVTQ[dP]GQ)
SMILES: CC[C@H](C)[C@@H]1NC(=O)[C@H]([C@@H](C)O)NC(=O)[C@H](CCCCN)NC(=O)[C@@H]2CCCN2C(=O)[C@H]([C@@H](C)O)NC(=O)CNC(=O)[C@H](CC(=O)O)NC(=O)CNC(=O)[C@H]([C@@H](C)O)NC(=O)[C@H](Cc2ccccc2)NC(=O)[C@H]([C@@H](C)O)NC(=O)[C@H]([C@@H](C)O)NC(=O)[C@H](CCC(=O)O)NC(=O)[C@H](CC(C)C)NC(=O)[C@H](Cc2ccccc2)NC(=O)[C@H]([C@@H](C)O)NC(=O)[C@H](CCC(N)=O)NC(=O)CNC(=O)[C@H]2CCCN2C(=O)[C@H](CCC(N)=O)NC(=O)[C@H]([C@@H](C)O)NC(=O)[C@H](C(C)C)NC(=O)[C@H](CCCNC(=N)N)NC1=O
For B4, affinity was put at a Ki of 1190 nM and the “Relative Ki (Ki mut/Ki WT)” value turned out to be 0.79.

B5: cyclic nNOS β-hairpin peptide H106E (peptide)
peptide: cyclo(TELETTFTGDGTPKTIRVTQ[dP]GQ)
SMILES: CC[C@H](C)[C@@H]1NC(=O)[C@H]([C@@H](C)O)NC(=O)[C@H](CCCCN)NC(=O)[C@@H]2CCCN2C(=O)[C@H]([C@@H](C)O)NC(=O)CNC(=O)[C@H](CC(=O)O)NC(=O)CNC(=O)[C@H]([C@@H](C)O)NC(=O)[C@H](Cc2ccccc2)NC(=O)[C@H]([C@@H](C)O)NC(=O)[C@H]([C@@H](C)O)NC(=O)[C@H](CCC(=O)O)NC(=O)[C@H](CC(C)C)NC(=O)[C@H](CCC(=O)O)NC(=O)[C@H]([C@@H](C)O)NC(=O)[C@H](CCC(N)=O)NC(=O)CNC(=O)[C@H]2CCCN2C(=O)[C@H](CCC(N)=O)NC(=O)[C@H]([C@@H](C)O)NC(=O)[C@H](C(C)C)NC(=O)[C@H](CCCNC(=N)N)NC1=O
As for B5, affinity was put at a Ki of 6190 nM and the “Relative Ki (Ki mut/Ki WT)” value came out at 4.13.

B6: cyclic nNOS β-hairpin peptide G115R (peptide)
peptide: cyclo(THLETTFTGDRTPKTIRVTQ[dP]GQ)
SMILES: CC[C@H](C)[C@@H]1NC(=O)[C@H]([C@@H](C)O)NC(=O)[C@H](CCCCN)NC(=O)[C@@H]2CCCN2C(=O)[C@H]([C@@H](C)O)NC(=O)[C@H](CCCNC(=N)N)NC(=O)[C@H](CC(=O)O)NC(=O)CNC(=O)[C@H]([C@@H](C)O)NC(=O)[C@H](Cc2ccccc2)NC(=O)[C@H]([C@@H](C)O)NC(=O)[C@H]([C@@H](C)O)NC(=O)[C@H](CCC(=O)O)NC(=O)[C@H](CC(C)C)NC(=O)[C@H](Cc2c[nH]cn2)NC(=O)[C@H]([C@@H](C)O)NC(=O)[C@H](CCC(N)=O)NC(=O)CNC(=O)[C@H]2CCCN2C(=O)[C@H](CCC(N)=O)NC(=O)[C@H]([C@@H](C)O)NC(=O)[C@H](C(C)C)NC(=O)[C@H](CCCNC(=N)N)NC1=O
B6: affinity was put at a Ki of 750 nM and the “Relative Ki (Ki mut/Ki WT)” value turned out to be 0.5.

B7: cyclic nNOS β-hairpin peptide I120Y (peptide)
peptide: cyclo(THLETTFTGDGTPKTYRVTQ[dP]GQ)
SMILES: CC(C)C[C@@H]1NC(=O)[C@H](Cc2c[nH]cn2)NC(=O)[C@H]([C@@H](C)O)NC(=O)[C@H](CCC(N)=O)NC(=O)CNC(=O)[C@H]2CCCN2C(=O)[C@H](CCC(N)=O)NC(=O)[C@H]([C@@H](C)O)NC(=O)[C@H](C(C)C)NC(=O)[C@H](CCCNC(=N)N)NC(=O)[C@H](Cc2ccc(O)cc2)NC(=O)[C@H]([C@@H](C)O)NC(=O)[C@H](CCCCN)NC(=O)[C@@H]2CCCN2C(=O)[C@H]([C@@H](C)O)NC(=O)CNC(=O)[C@H](CC(=O)O)NC(=O)CNC(=O)[C@H]([C@@H](C)O)NC(=O)[C@H](Cc2ccccc2)NC(=O)[C@H]([C@@H](C)O)NC(=O)[C@H]([C@@H](C)O)NC(=O)[C@H](CCC(=O)O)NC1=O
As for B7, the affinity corresponds to a Ki of 1600 nM and the “Relative Ki (Ki mut/Ki WT)” value turned out to be 1.07.

B8: cyclic nNOS β-hairpin peptide F111V (peptide)
peptide: cyclo(THLETTVTGDGTPKTIRVTQ[dP]GQ)
SMILES: CC[C@H](C)[C@@H]1NC(=O)[C@H]([C@@H](C)O)NC(=O)[C@H](CCCCN)NC(=O)[C@@H]2CCCN2C(=O)[C@H]([C@@H](C)O)NC(=O)CNC(=O)[C@H](CC(=O)O)NC(=O)CNC(=O)[C@H]([C@@H](C)O)NC(=O)[C@H](C(C)C)NC(=O)[C@H]([C@@H](C)O)NC(=O)[C@H]([C@@H](C)O)NC(=O)[C@H](CCC(=O)O)NC(=O)[C@H](CC(C)C)NC(=O)[C@H](Cc2c[nH]cn2)NC(=O)[C@H]([C@@H](C)O)NC(=O)[C@H](CCC(N)=O)NC(=O)CNC(=O)[C@H]2CCCN2C(=O)[C@H](CCC(N)=O)NC(=O)[C@H]([C@@H](C)O)NC(=O)[C@H](C(C)C)NC(=O)[C@H](CCCNC(=N)N)NC1=O
For B8, the inhibition constant Ki was found to be 77400 nM and the “Relative Ki (Ki mut/Ki WT)” value is 51.6.

B9: cyclic nNOS β-hairpin peptide D114R (peptide)
peptide: cyclo(THLETTFTGRGTPKTIRVTQ[dP]GQ)
SMILES: CC[C@H](C)[C@@H]1NC(=O)[C@H]([C@@H](C)O)NC(=O)[C@H](CCCCN)NC(=O)[C@@H]2CCCN2C(=O)[C@H]([C@@H](C)O)NC(=O)CNC(=O)[C@H](CCCNC(=N)N)NC(=O)CNC(=O)[C@H]([C@@H](C)O)NC(=O)[C@H](Cc2ccccc2)NC(=O)[C@H]([C@@H](C)O)NC(=O)[C@H]([C@@H](C)O)NC(=O)[C@H](CCC(=O)O)NC(=O)[C@H](CC(C)C)NC(=O)[C@H](Cc2c[nH]cn2)NC(=O)[C@H]([C@@H](C)O)NC(=O)[C@H](CCC(N)=O)NC(=O)CNC(=O)[C@H]2CCCN2C(=O)[C@H](CCC(N)=O)NC(=O)[C@H]([C@@H](C)O)NC(=O)[C@H](C(C)C)NC(=O)[C@H](CCCNC(=N)N)NC1=O
In the case of B9, the inhibition constant Ki stood at 990 nM and the “Relative Ki (Ki mut/Ki WT)” value was 0.66.

B10: cyclic nNOS β-hairpin peptide I120R (peptide)
peptide: cyclo(THLETTFTGDGTPKTRRVTQ[dP]GQ)
SMILES: CC(C)C[C@@H]1NC(=O)[C@H](Cc2c[nH]cn2)NC(=O)[C@H]([C@@H](C)O)NC(=O)[C@H](CCC(N)=O)NC(=O)CNC(=O)[C@H]2CCCN2C(=O)[C@H](CCC(N)=O)NC(=O)[C@H]([C@@H](C)O)NC(=O)[C@H](C(C)C)NC(=O)[C@H](CCCNC(=N)N)NC(=O)[C@H](CCCNC(=N)N)NC(=O)[C@H]([C@@H](C)O)NC(=O)[C@H](CCCCN)NC(=O)[C@@H]2CCCN2C(=O)[C@H]([C@@H](C)O)NC(=O)CNC(=O)[C@H](CC(=O)O)NC(=O)CNC(=O)[C@H]([C@@H](C)O)NC(=O)[C@H](Cc2ccccc2)NC(=O)[C@H]([C@@H](C)O)NC(=O)[C@H]([C@@H](C)O)NC(=O)[C@H](CCC(=O)O)NC1=O
As to B10, the affinity corresponds to a Ki of 1760 nM and the “Relative Ki (Ki mut/Ki WT)” value was 1.17.

B11: cyclic nNOS β-hairpin peptide D114P (peptide)
peptide: cyclo(THLETTFTGPGTPKTIRVTQ[dP]GQ)
SMILES: CC[C@H](C)[C@@H]1NC(=O)[C@H]([C@@H](C)O)NC(=O)[C@H](CCCCN)NC(=O)[C@@H]2CCCN2C(=O)[C@H]([C@@H](C)O)NC(=O)CNC(=O)[C@@H]2CCCN2C(=O)CNC(=O)[C@H]([C@@H](C)O)NC(=O)[C@H](Cc2ccccc2)NC(=O)[C@H]([C@@H](C)O)NC(=O)[C@H]([C@@H](C)O)NC(=O)[C@H](CCC(=O)O)NC(=O)[C@H](CC(C)C)NC(=O)[C@H](Cc2c[nH]cn2)NC(=O)[C@H]([C@@H](C)O)NC(=O)[C@H](CCC(N)=O)NC(=O)CNC(=O)[C@H]2CCCN2C(=O)[C@H](CCC(N)=O)NC(=O)[C@H]([C@@H](C)O)NC(=O)[C@H](C(C)C)NC(=O)[C@H](CCCNC(=N)N)NC1=O
For the molecule B11, the Ki came to 2400 nM and the “Relative Ki (Ki mut/Ki WT)” value worked out at 1.6.

As usually defined, the Ki is a dissociation constant, usually derived from enzyme kinetics or from competition with a known ligand. Higher therefore signals lower affinity.
